Results on 15 molecules are retold here after PMC5777247, “Cohesin SA2 is a sequence-independent DNA-binding protein that recognizes DNA replication and repair intermediates”.

Where “and” joins values, the source holds several entries; their conditions need not be identical. Equal entries are not always repeated.

In series [1] the target is T1, SA2 (STAG2), full length (human, UniProt Q8N3U4 1-1231).
T1 sequence: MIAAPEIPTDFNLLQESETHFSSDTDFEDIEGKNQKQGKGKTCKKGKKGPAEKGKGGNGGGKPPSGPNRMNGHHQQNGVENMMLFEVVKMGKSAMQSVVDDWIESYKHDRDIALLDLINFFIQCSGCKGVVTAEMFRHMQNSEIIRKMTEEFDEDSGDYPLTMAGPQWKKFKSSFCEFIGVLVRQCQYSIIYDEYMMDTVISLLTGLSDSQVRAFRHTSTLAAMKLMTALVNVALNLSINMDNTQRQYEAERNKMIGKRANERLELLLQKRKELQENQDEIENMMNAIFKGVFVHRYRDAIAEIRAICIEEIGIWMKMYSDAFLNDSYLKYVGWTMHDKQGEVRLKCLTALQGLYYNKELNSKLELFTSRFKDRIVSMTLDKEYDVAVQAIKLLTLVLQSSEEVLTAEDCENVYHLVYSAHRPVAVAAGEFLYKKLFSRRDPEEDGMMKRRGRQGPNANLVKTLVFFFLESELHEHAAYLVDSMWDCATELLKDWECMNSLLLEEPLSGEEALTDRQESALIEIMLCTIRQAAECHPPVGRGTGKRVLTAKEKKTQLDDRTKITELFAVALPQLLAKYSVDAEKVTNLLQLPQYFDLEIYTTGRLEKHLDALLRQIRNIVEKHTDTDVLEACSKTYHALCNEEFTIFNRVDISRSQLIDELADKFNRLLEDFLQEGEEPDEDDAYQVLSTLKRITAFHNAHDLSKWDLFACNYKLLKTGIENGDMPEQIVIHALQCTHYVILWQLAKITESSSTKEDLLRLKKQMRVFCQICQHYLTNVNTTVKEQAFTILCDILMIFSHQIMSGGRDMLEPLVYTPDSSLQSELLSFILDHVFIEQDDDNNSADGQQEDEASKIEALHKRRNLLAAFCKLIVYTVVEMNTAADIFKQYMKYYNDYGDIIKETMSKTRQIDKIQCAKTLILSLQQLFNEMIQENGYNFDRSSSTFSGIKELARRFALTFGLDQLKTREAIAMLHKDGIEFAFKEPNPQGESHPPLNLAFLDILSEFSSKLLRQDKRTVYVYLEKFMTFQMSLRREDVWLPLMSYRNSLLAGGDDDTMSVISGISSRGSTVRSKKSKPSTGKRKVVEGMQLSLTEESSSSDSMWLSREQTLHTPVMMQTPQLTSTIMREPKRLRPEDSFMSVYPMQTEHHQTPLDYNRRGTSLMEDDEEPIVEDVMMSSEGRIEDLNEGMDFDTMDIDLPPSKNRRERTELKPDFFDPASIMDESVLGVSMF
The experiment in a line: AFM. The settings on record: Anisotropy: 20 mM Hepes pH 7.5, 0.1 mM MgCl2, 0.5 mM DTT, 100 mM KCl, 1 nM DNA, AFM: 20 mM Hepes pH 7.5, 100 mM KCl, 0.1 mM MgCl2, room temperature, 20 min.

The target in series [2] is His-tagged full-length SA2 (amino acids 1-1231, 141 kDa) (human) (UniProt Q8N3U4). The experiment in a line: AFM volume analysis; SA2 incubated with linear DNA substrates in 20 mM Hepes (pH 7.5), 100 mM KCl, 0.1 mM MgCl2 at room temperature for 20 min, deposited on mica; number of SA2 molecules in DNA-bound complexes from the AFM volume calibration curve.
For series [3] the target is unchanged. The experiment in a line: single-molecule fluorescence imaging on DNA tightropes; QD-labeled His-SA2 on DNA tightropes (centromeric, telomeric, gapped) between silica beads, oblique angle TIRF, no buffer flow; encounters of SA2-QDs on DNA followed in kymographs.
Series [4] addresses T1, SA2 (STAG2), full length. Briefly: fluorescence anisotropy. Particulars: Anisotropy: 20 mM Hepes pH 7.5, 0.1 mM MgCl2, 0.5 mM DTT, 100 mM KCl, 1 nM DNA; AFM: 20 mM Hepes pH 7.5, 100 mM KCl, 0.1 mM MgCl2, room temperature, 20 min. On the technique in general: Fluorescence polarisation rises when a labelled molecule tumbles more slowly, as on binding a larger partner.
Series [5] has as its target T2, SA2 1-1051 (human, UniProt Q8N3U4 1-1051).
T2 sequence: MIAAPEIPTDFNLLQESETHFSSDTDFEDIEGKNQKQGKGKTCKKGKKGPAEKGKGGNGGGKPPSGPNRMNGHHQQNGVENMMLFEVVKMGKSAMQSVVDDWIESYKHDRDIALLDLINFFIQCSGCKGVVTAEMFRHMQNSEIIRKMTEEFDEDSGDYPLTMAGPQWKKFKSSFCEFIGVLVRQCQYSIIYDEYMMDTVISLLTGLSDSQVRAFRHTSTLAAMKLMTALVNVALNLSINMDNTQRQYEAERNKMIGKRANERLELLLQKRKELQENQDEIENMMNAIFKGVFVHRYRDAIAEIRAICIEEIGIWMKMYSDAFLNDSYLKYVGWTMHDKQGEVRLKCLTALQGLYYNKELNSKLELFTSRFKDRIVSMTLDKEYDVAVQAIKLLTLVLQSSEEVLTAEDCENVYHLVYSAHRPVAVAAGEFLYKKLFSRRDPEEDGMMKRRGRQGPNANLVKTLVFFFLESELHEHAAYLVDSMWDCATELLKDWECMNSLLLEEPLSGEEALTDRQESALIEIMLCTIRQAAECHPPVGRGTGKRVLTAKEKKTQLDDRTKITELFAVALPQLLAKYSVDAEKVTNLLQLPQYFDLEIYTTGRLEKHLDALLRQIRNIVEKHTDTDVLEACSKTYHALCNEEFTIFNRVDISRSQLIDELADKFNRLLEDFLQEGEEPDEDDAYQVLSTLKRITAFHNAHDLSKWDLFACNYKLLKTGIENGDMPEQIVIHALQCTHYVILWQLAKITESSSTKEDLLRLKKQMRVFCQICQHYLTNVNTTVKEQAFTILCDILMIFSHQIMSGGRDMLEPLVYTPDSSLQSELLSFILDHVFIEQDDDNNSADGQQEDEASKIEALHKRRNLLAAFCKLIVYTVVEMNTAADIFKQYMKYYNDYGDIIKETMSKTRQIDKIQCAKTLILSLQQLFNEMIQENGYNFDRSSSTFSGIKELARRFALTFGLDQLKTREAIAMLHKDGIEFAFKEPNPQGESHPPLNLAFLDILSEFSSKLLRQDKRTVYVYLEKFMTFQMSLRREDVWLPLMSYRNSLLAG
Briefly: AFM. Particulars: Anisotropy: 20 mM Hepes pH 7.5, 0.1 mM MgCl2, 0.5 mM DTT, 100 mM KCl, 1 nM DNA, AFM: 20 mM Hepes pH 7.5, 100 mM KCl, 0.1 mM MgCl2, room temperature, 20 min.

Series [6] concerns the target T1, SA2 (STAG2), full length. The experiment in a line: fluorescence anisotropy; Anisotropy: 20 mM Hepes pH 7.5, 0.1 mM MgCl2, 0.5 mM DTT, 100 mM KCl, 1 nM DNA; AFM: 20 mM Hepes pH 7.5, 100 mM KCl, 0.1 mM MgCl2, room temperature, 20 min. Particulars: protein: recombinant, tags: 6xHis.
Series [7] has as its target T1, SA2 (STAG2), full length. The experiment in a line: fluorescence anisotropy; uncertain: low saturation; Anisotropy: 20 mM Hepes pH 7.5, 0.1 mM MgCl2, 0.5 mM DTT, 100 mM KCl, 1 nM DNA; AFM: 20 mM Hepes pH 7.5, 100 mM KCl, 0.1 mM MgCl2, room temperature, 20 min. Particulars: protein: recombinant; tags: 6xHis; label: 5' Alexa 488.
For series [8], the target named is T2, SA2 1-1051. The experiment in a line: fluorescence anisotropy; Anisotropy: 20 mM Hepes pH 7.5, 0.1 mM MgCl2, 0.5 mM DTT, 100 mM KCl, 1 nM DNA; AFM: 20 mM Hepes pH 7.5, 100 mM KCl, 0.1 mM MgCl2, room temperature, 20 min. Particulars: protein: recombinant; tags: 6xHis; label: Alexa 488; blunt.
Setting [9] is: DNA ends vs internal, no centromere preference.

Cen-end DNA: the binding signal with SA2 (STAG2), full length [1] (setting [9]) was determined as 2600 KSP/KNSP.

The molecule Cen-mid DNA had a binding signal in the series with SA2 (STAG2), full length [1] (setting [9]) of 2130 KSP/KNSP.

Consider “His-tagged full-length SA2 (amino acids 1-1231, 141 kDa) (from UniProt Q8N3U4 1-1231) (natural protein)”, for which, in series [2], the stoichiometry N (SA2 molecules) was 5 and 4. The same molecule showed a percent of SA2-SA2 encounters on DNA that formed complexes in series [3] of 8%.

As to circular replication fork template, the binding signal with SA2 (STAG2), full length [1] (55.6% of bound SA2 at fork junction) was found to be 26 % DNA bound.

The Kd is the free concentration of one partner at which half of the binding sites on the other are occupied at equilibrium, for simple one-to-one binding. In turn, ds66 telomeric showed a dissociation constant (Kd) with SA2 (STAG2), full length [4] of 88 nM.

linear flap DNA (AFM) gave a binding signal in the series with SA2 (STAG2), full length [1] (flap vs internal) of 4260 KSP/KNSP.

In the case of linear gapped DNA, the binding signal is 1990 KSP/KNSP with SA2 (STAG2), full length [1] (ssDNA gap vs internal); 1690 KSP/KNSP with SA2 1-1051 [5] (DNA ends vs internal, substrate for end value inferred); 1810 KSP/KNSP in the series with SA2 1-1051 [5] (ssDNA gap vs internal).

On to linear replication fork DNA (AFM), for which, in the series with SA2 (STAG2), full length [1] (replication fork vs internal), the binding signal worked out at 3150 KSP/KNSP.

In turn, linear single-stranded fork DNA (AFM) came in with a binding signal with SA2 (STAG2), full length [1] (fork vs internal) of 2950 KSP/KNSP.

As for replication fork (anisotropy), the Kd with SA2 (STAG2), full length [4] was determined as 133 nM.

TGTCGCATAGTGTAGTCGGTCTTGTTCGGTCATAGCTCATCGTGG (ssDNA) [ss45 (oligo 1)]: the Kd in the series with SA2 (STAG2), full length [6] (label: 5' Alexa 488) stood at 118 ± 5.3 nM.

B1: ds45 (oligo 1 + oligo 2) (dsDNA)
DNA 1: TGTCGCATAGTGTAGTCGGTCTTGTTCGGTCATAGCTCATCGTGG
DNA 2: CCACGATGAGCTATGACCGAACAAGACCGACTACACTATGCGACA
As to B1, the Kd with SA2 (STAG2), full length [6] (label: 5' Alexa 488 on strand 1, blunt) came out at 175 ± 12.9 nM.

With TGTCGCATAGTGTAGTCGGTCTTGT (ssDNA) [ss25], the Kd in the series with SA2 (STAG2), full length [7] was around 445 nM.

On to TGTCGCATAGTGTAG (ssDNA) [ss15], for which, in the series with SA2 (STAG2), full length [7], the Kd is around 1000 nM.

B2: ds66 non-telomeric (Alexa ss66 + ss66-com) (dsDNA)
DNA 1: CTGGATCCGTACAGTGTAAGGGTGAGTGGTTGGGTGTGTGGGTGTTGATGTAGAACAAGAATTCGA
DNA 2: TCGAATTCTTGTTCTACATCAACACCCACACACCCAACCACTCACCCTTACACTGTACGGATCCAG
On to B2, for which the dissociation constant Kd with SA2 (STAG2), full length [6] (label: Alexa 488, blunt) was 76.2 ± 3.9 nM; with SA2 1-1051 [8], 198 nM.
